± gives the uncertainty stated by the source.
Assay: self-splicing fitness, log relative to wild type (ln ratio); higher = more splicing; Tetrahymena group I intron in knt gene, E. coli kanamycin selection, DiMSum; sequences stand for … in CUCUCU…GGAGGGAAAAGUUAUCAGGCAUGCACCUGGUAGCUAGUCUUUAAACCAAUAGAUUGCAUCGGUUUAAAAGGCAAGACCGUCAAAUUGCGGGAAAGGGGUCAACAGCCGUUCAGUACCAAGUCUCAGGGGAAACUUUGAGAUGGCCUUGCAAAGGGUAUGGUAAUAAGCUGACGGACAUGGUCCUAACCACGCAGCCAAGUCCUAAGUCAACAGAUCUUCUGUUGAUAUGGAUGCAGUUCACAGACUAAAUGUCGGUCGGGGAAGAUGUAUUCUUCUCAUAAGAUAUAGUCGGACCUCUCCUUAAUGGGAGCUAGCGGAUGAAGUGAUGCAACACUGGAGCCGCUGGGAACUAAUUUGUAUGCGAAAGUAUAUUGAUUAGUUUUGGAGUACUCGUGGUCG
Method in brief: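 Six replicate transformations of E. coli BL21(DE3) with a pET-22b(+) library were grown overnight at 37°C or 30°C. The library randomised all eight P1ex-region intron nucleotides, the intron lying in the knt kanamycin-resistance gene, and plates were LB agar with or without 25 μg/mL kanamycin plus 100 μg/mL carbenicillin, 50 μM IPTG and 0.2% rhamnose. Pooled colonies were amplicon-sequenced on an Illumina HiSeq 2500, and fitness is the DiMSum error-weighted combination of wild-type-normalised replicate fold changes, kanamycin versus none.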

UAGCAGCAAUAUUACGUAAC
self-splicing fitness (ln) (30 °C): -3.52 ± 0.19 | self-splicing fitness (ln) (37 °C): -2.42 ± 0.21

AAUUAGCAAUAUUACGUUCG
self-splicing fitness (ln) (30 °C): -1.16 ± 0.12 | self-splicing fitness (ln) (37 °C): -0.728 ± 0.18

CUUGAGCAAUAUUACGUAGU
self-splicing fitness (ln) (30 °C): -3.28 ± 0.3 | self-splicing fitness (ln) (37 °C): -2.11 ± 0.33

ACUUAGCAAUAUUACGCAUC
self-splicing fitness (ln) (30 °C): -2.69 ± 0.19 | self-splicing fitness (ln) (37 °C): -1.64 ± 0.2

GUUCAGCAAUAUUACGUACU
self-splicing fitness (ln) (30 °C): -1.24 ± 0.1 | self-splicing fitness (ln) (37 °C): 0.162 ± 0.13

ACUAAGCAAUAUUACGGUUG
self-splicing fitness (ln) (30 °C): -3.25 ± 0.2 | self-splicing fitness (ln) (37 °C): -2.5 ± 0.21

UAGUAGCAAUAUUACGCAGC
self-splicing fitness (ln) (30 °C): -2.96 ± 0.47

UUCUAGCAAUAUUACGGUAC
self-splicing fitness (ln) (30 °C): -4.34 ± 0.36 | self-splicing fitness (ln) (37 °C): -2.76 ± 0.3

UUGGAGCAAUAUUACGAAUG
self-splicing fitness (ln) (30 °C): -3.5 ± 0.2 | self-splicing fitness (ln) (37 °C): -2.31 ± 0.21

CCUCAGCAAUAUUACGAGAG
self-splicing fitness (ln) (30 °C): -2.75 ± 0.13 | self-splicing fitness (ln) (37 °C): -1.47 ± 0.1

CCCUAGCAAUAUUACGAACA
self-splicing fitness (ln) (37 °C): -2.55 ± 0.42

UGCCAGCAAUAUUACGAGGC
self-splicing fitness (ln) (30 °C): -4.02 ± 0.42 | self-splicing fitness (ln) (37 °C): -1.44 ± 0.18

UCCCAGCAAUAUUACGGAUC
self-splicing fitness (ln) (30 °C): -2.71 ± 0.13 | self-splicing fitness (ln) (37 °C): -1.64 ± 0.14

CGACAGCAAUAUUACGGUGA
self-splicing fitness (ln) (30 °C): -2.34 ± 0.14 | self-splicing fitness (ln) (37 °C): -1.55 ± 0.14

UCACAGCAAUAUUACGGCAG
self-splicing fitness (ln) (30 °C): -2.03 ± 0.12 | self-splicing fitness (ln) (37 °C): -0.996 ± 0.16

GUUGAGCAAUAUUACGGGAA
self-splicing fitness (ln) (30 °C): -3.4 ± 0.23 | self-splicing fitness (ln) (37 °C): -2.39 ± 0.23

AACAAGCAAUAUUACGAUUG
self-splicing fitness (ln) (30 °C): -4.48 ± 0.21 | self-splicing fitness (ln) (37 °C): -1.54 ± 0.13

CGUUAGCAAUAUUACGUAGU
self-splicing fitness (ln) (30 °C): -4.27 ± 0.25 | self-splicing fitness (ln) (37 °C): -2.85 ± 0.23

CCGCAGCAAUAUUACGCUGG
self-splicing fitness (ln) (30 °C): -2.24 ± 0.11 | self-splicing fitness (ln) (37 °C): -2.92 ± 0.24

CUUAAGCAAUAUUACGAAAG
self-splicing fitness (ln) (30 °C): -2.9 ± 0.22 | self-splicing fitness (ln) (37 °C): -1.75 ± 0.18

GUAUAGCAAUAUUACGUGAC
self-splicing fitness (ln) (30 °C): -2.65 ± 0.13 | self-splicing fitness (ln) (37 °C): -1.65 ± 0.14

AGAAAGCAAUAUUACGGGGC
self-splicing fitness (ln) (30 °C): -4.36 ± 0.3 | self-splicing fitness (ln) (37 °C): -2.05 ± 0.21

CUGCAGCAAUAUUACGCACA
self-splicing fitness (ln) (30 °C): -2.82 ± 0.19 | self-splicing fitness (ln) (37 °C): -1.48 ± 0.19

CGGAAGCAAUAUUACGGCUC
self-splicing fitness (ln) (30 °C): -4.04 ± 0.25 | self-splicing fitness (ln) (37 °C): -2.51 ± 0.24

AUAAAGCAAUAUUACGAUCC
self-splicing fitness (ln) (30 °C): -1.21 ± 0.2 | self-splicing fitness (ln) (37 °C): -0.716 ± 0.22

UGUCAGCAAUAUUACGCCCA
self-splicing fitness (ln) (30 °C): 0.0616 ± 0.14 | self-splicing fitness (ln) (37 °C): 0.348 ± 0.18

CCCUAGCAAUAUUACGCAGA
self-splicing fitness (ln) (30 °C): -3.68 ± 0.31 | self-splicing fitness (ln) (37 °C): -1.73 ± 0.15

GUUGAGCAAUAUUACGAAAC
self-splicing fitness (ln) (30 °C): -1.97 ± 0.37

AUGGAGCAAUAUUACGUUCU
self-splicing fitness (ln) (30 °C): -2.64 ± 0.22 | self-splicing fitness (ln) (37 °C): -3.2 ± 0.4

ACAUAGCAAUAUUACGAUUG
self-splicing fitness (ln) (30 °C): -2.62 ± 0.1 | self-splicing fitness (ln) (37 °C): -0.942 ± 0.11

AGACAGCAAUAUUACGAGCA
self-splicing fitness (ln) (30 °C): -1.46 ± 0.12 | self-splicing fitness (ln) (37 °C): -0.648 ± 0.13

UAGCAGCAAUAUUACGCCCA
self-splicing fitness (ln) (30 °C): -0.744 ± 0.3 | self-splicing fitness (ln) (37 °C): 0.445 ± 0.47

GCACAGCAAUAUUACGACGC
self-splicing fitness (ln) (30 °C): -0.317 ± 0.079 | self-splicing fitness (ln) (37 °C): -0.196 ± 0.12

CCACAGCAAUAUUACGAUUU
self-splicing fitness (ln) (30 °C): -4.23 ± 0.19 | self-splicing fitness (ln) (37 °C): -3.01 ± 0.17

GUUCAGCAAUAUUACGGUGG
self-splicing fitness (ln) (30 °C): -2.39 ± 0.18 | self-splicing fitness (ln) (37 °C): -1.96 ± 0.19

GGUCAGCAAUAUUACGGACG
self-splicing fitness (ln) (30 °C): -0.915 ± 0.11 | self-splicing fitness (ln) (37 °C): 0.0247 ± 0.16

CCACAGCAAUAUUACGGAAA
self-splicing fitness (ln) (30 °C): -3.47 ± 0.23 | self-splicing fitness (ln) (37 °C): -3.54 ± 0.29

UGGAAGCAAUAUUACGACGC
self-splicing fitness (ln) (30 °C): -1.66 ± 0.22 | self-splicing fitness (ln) (37 °C): -1.05 ± 0.28

CGCAAGCAAUAUUACGGGGC
self-splicing fitness (ln) (30 °C): -3.65 ± 0.17 | self-splicing fitness (ln) (37 °C): -2.6 ± 0.15

CCAGAGCAAUAUUACGUAAC
self-splicing fitness (ln) (30 °C): -3.56 ± 0.37 | self-splicing fitness (ln) (37 °C): -1.96 ± 0.32

GCCAAGCAAUAUUACGUCUC
self-splicing fitness (ln) (30 °C): -0.775 ± 0.067 | self-splicing fitness (ln) (37 °C): -0.174 ± 0.087

ACUCAGCAAUAUUACGUCCG
self-splicing fitness (ln) (30 °C): -2.16 ± 0.14 | self-splicing fitness (ln) (37 °C): -1.21 ± 0.15

AGCAAGCAAUAUUACGUGCU
self-splicing fitness (ln) (30 °C): -2.38 ± 0.14 | self-splicing fitness (ln) (37 °C): -2.07 ± 0.16

— the supplement of paper PMC7877785
